Molecular target: Daedalus-expressed CARMA-CARD (N-terminal CARD domain of human CARMA1, Asp2-Thr104) (human)
Assay: SEC

stoichiometry N: 2
Substance: Daedalus-expressed CARMA-CARD (N-terminal CARD domain of human CARMA1, Asp2-Thr104) (domain or fragment)
